Positions count from the first letter of the chain named. Blank lines part the entries; values can stand above or below the binder they belong to.
Experiments:
[1] = biological target: T1, endogenous LGR5 of human cancer cell lines (human (endogenous in NALM6, REH, 697, LoVo)) (UniProt O75473)
T1 sequence: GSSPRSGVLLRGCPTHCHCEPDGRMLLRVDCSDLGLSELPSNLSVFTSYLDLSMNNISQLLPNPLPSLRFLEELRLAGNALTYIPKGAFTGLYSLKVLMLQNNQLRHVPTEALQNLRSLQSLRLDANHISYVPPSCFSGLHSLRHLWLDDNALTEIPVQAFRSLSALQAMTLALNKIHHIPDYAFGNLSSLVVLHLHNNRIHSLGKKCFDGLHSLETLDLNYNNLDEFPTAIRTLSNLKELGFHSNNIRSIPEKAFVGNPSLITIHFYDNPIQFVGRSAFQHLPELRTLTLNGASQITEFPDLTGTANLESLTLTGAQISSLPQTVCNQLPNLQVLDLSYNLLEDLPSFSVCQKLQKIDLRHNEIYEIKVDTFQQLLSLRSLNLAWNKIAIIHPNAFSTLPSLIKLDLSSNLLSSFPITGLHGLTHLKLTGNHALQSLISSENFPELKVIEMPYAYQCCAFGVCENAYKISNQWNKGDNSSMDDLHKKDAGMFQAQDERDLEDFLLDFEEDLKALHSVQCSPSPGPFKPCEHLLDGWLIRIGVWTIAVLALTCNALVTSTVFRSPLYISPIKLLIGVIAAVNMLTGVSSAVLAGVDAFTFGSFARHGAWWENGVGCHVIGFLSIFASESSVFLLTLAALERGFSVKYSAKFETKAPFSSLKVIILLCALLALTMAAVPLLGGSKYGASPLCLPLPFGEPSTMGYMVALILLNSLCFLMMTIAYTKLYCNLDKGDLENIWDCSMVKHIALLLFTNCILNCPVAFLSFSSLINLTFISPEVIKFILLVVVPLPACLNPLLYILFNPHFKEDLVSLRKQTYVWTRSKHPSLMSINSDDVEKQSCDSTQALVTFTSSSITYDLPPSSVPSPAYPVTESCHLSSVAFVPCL

[2] = biological target: T1, endogenous LGR5 of human cancer cell lines (human (endogenous in NALM6, REH, 697, LoVo)); remark: listed apart in the source
[3] = biological target: T2, RAD-displayed Fragment 1A of human LGR5 (Homo sapiens, UniProt O75473); assay: BLI
T2 chain: GSSPRSGVLLRGCPT

[4] = biological target: T2, RAD-displayed Fragment 1A of human LGR5; assay: western blot
[5] = biological target: T3, endogenous LGR5 of human cancer cell lines (Homo sapiens, UniProt O75473); assay: western blot
[6] = biological target: T2, RAD-displayed Fragment 1A of human LGR5; assay: immunostaining of cells or tissue
[7] = biological target: T3, endogenous LGR5 of human cancer cell …; assay: flow cytometry on cells
[8] = biological target: human LGR4 transgene with N-terminal HA tag, V2 receptor tail and eGFP (Homo sapiens, UniProt Q9BXB1); assay: flow cytometry on cells
Sequence of human LGR4 transgene with N-terminal HA tag, V2 receptor tail and eGFP (Q9BXB1 25-951): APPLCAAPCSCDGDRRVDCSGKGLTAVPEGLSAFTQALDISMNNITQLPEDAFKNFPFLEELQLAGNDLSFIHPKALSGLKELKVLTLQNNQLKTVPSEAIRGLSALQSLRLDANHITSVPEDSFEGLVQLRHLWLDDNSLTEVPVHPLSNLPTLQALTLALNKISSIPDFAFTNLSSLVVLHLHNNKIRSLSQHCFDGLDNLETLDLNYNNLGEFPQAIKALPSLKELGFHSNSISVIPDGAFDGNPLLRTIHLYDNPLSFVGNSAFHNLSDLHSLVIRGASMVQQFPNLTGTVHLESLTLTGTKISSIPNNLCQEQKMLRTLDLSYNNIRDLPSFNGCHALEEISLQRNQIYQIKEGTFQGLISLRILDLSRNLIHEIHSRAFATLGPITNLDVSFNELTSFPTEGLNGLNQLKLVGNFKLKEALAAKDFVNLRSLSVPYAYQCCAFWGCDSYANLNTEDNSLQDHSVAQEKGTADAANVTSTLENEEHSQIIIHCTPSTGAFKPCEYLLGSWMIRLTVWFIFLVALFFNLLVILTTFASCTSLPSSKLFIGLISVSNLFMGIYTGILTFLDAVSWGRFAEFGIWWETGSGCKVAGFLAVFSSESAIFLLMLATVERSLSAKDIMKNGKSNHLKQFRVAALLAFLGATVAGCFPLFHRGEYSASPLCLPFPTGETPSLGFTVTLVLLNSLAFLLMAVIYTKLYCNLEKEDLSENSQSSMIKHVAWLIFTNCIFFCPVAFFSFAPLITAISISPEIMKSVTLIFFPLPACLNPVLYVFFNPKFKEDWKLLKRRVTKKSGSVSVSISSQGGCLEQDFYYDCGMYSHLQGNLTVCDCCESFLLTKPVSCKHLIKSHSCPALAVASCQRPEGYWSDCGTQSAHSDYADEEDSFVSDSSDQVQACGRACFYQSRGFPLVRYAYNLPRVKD

[9] = biological target: murine LGR5 transgene with N-terminal HA tag, V2 receptor tail and eGFP (Mus musculus, UniProt Q9Z1P4); assay: flow cytometry on cells
Sequence of murine LGR5 transgene with N-terminal HA tag, V2 receptor tail and eGFP (Q9Z1P4 22-907): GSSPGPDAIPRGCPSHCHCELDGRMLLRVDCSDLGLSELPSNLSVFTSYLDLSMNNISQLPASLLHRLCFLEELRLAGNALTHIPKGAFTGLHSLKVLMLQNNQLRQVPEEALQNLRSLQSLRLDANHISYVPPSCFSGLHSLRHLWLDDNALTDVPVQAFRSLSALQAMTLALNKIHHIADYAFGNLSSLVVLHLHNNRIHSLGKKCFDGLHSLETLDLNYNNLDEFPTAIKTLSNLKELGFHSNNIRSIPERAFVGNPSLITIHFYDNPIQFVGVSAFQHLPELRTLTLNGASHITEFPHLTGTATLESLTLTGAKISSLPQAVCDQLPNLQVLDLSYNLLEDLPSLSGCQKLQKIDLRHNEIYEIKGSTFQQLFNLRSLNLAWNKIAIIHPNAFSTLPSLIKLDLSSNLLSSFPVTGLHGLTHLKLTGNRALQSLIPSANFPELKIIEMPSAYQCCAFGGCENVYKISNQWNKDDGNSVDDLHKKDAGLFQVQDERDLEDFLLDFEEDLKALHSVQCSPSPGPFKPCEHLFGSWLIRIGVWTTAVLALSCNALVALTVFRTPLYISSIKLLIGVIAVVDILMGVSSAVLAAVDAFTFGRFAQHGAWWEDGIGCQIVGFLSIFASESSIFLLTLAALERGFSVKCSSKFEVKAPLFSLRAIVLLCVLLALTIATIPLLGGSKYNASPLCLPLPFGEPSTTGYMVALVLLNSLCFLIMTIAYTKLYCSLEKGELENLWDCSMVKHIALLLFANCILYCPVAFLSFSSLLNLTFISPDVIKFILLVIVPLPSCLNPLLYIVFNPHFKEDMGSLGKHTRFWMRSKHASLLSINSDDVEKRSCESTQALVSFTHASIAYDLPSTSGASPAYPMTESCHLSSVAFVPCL

binding result [3]: binds
B1: α-LGR5-ADC (murine clone 2 conjugated to MMAE, sulphatase cleavable linker) (antibody, V domains shown)
VH: QVQLQQPGAELVKPGASVKLSCKASGYTFTNYWMQWVKQRPGQGLEWIGEIDPSDSYTNYNQKFKGKATLTVDTSSSTAYMQLSSLTSEDSAVYYCARSLSGYVDYWGQGTTLTVSS
VL: DIQMTQTTSSLSASLGDRVTISCRASQDISNRLNWYQQKPDGTVKLLISYRSRLHSGVPSRFSGSGSGTDYSLTISNLEQEDIATYFCQQGNSLPPTFGGGTKLEVR
killing of NALM6 cells after three days of treatment (CellTiter-Glo), EC50 [1]: 4 nM
killing of REH cells after three days of treatment (CellTiter-Glo), EC50 [1]: 10 nM
killing of LoVo cells after three days of treatment (CellTiter-Glo), EC50 [2]: 9 nM

binding result [4]: binds
B2: α-LGR5 hybridoma clone 3 (antibody, V domains shown)
VH: B1 VH with N31S, T58S
VL: B1 VL with H55Q, Q80E, S93T

binding result [4]: binds
binding result [5]: binds
B3: α-LGR5 hybridoma clone 2 (antibody, V domains shown)
VH: B1 VH
VL: B1 VL

binding result [4]: binds
B4: α-LGR5 hybridoma clone 1 (antibody, V domains shown)
VH: B1 VH with N31S, S56Y
VL: B1 VL with T7S, S22N, S30R, H55Q, D70E, S93T

binding result [6]: binds
binding result [7]: binds
binding result [8]: no binding
binding result [9]: no binding
B5: murine α-LGR5 coupled to Dylight650 fluorophore (antibody, V domains shown)
VH: B1 VH
VL: B1 VL

binding result [4]: binds
B6: α-LGR5 hybridoma clone 4 (antibody, V domains shown)
VH: B1 VH with N31D, K65Q, M81I, E89D, Y103S
VL: B1 VL with H55Q, S76T, S93T
